The data set deals with the molecule itself. In words: SEC; gel filtration of the purified native enzyme, buffer and standards not told. (SEC sorts molecules by how far they enter the pores of the column.)

B1: D-psicose 3-epimerase from Clostridium scindens ATCC 35704 (hypothetical protein CLOSCI_02528) (enzyme, UniProt B0NGC5 1-289, looked up)
chain: MKHGIYYAYWEQEWAADYKRYVEKAAKLGFDILEVGAAPLPDYSAQEVKELKKCADDNGIQLTAGYGPAFNHNMGSSDPKIREEALQWYKRLFEVMAGLDIHLIGGALYSYWPVDFATANKEEDWKHSVEGMQILAPIASQYGINLGMEVLNRFESHILNTSEEGVKFVTEVGMDNVKVMLDTFHMNIEESSIGDAIRHAGKLLGHFHTGECNRMVPGKGRTPWREIGDALREIEYDGTVVMEPFVRMGGQVGSDIKVWRDISKGAGEDRLDEDARRAVEFQRYMLEWK
notes: D-psicose 3-epimerase (hypothetical protein CLOSCI_02528, protein ID ZP_02432283) of Clostridium scindens ATCC 35704; full-length synthetic gene cloned NdeI/XhoI into pET-22b(+); No removal of the C-terminal 6xhistidine tag is described; Metal-free after dialysis against EDTA; Subunit about 32 kDa by SDS-PAGE, native enzyme about 125 kDa by gel filtration; also called C. scindens DPEase; DPEase
Usually stoichiometry N stands for the number of molecules, sites or subunits per partner or assembly. B1: the “stoichiometry N” value is 4.

The record behind these values is article PMC3639893, “Characterization of a Novel Metal-Dependent D-Psicose 3-Epimerase from Clostridium scindens 35704” (PLoS ONE, 2013).
